Test results as given in paper PMC3472039 (Journal of molecular biology, 2012).
Square brackets hold non-standard residues; d marks the D form. Ends that are not written are not given here. SeMet = C[Se]CC[C@H](N)C(=O)O

Target: the molecule itself
Test: crystal structure

B1: SeMet-QkI-Qua1(14-67) C35S (domain or fragment, UniProt Q9QYS9 14-67, looked up)
chain: TPDYL[SeMet]QL[SeMet]NDKKL[SeMet]SSLPNFSGIFNHLERLLDEEISRVRKD[SeMet]YNDTLNGSTEK
  stoichiometry N: 2
